The values below come from publication PMC5736220, “Using thermal scanning assays to test protein-protein interactions of inner-ear cadherins” (PLoS ONE, 2017).

A word on the Kd: it is the equilibrium constant for the complex coming apart. Read a high Kd as weaker binding. As a reminder, the koff is the first-order rate constant of dissociation. A higher koff goes with a short-lived complex. In general, kon refers to the rate constant with which the complex forms. Read a low kon as slow association.

Numbering of substitutions follows the chain as printed. Numbers in names are those of the source.

What all share (conditions): both partners purified
Data set [1] concerns the target T1, protocadherin-15 EC1+2 G16D, His-tagged (mouse, UniProt Q99PJ1 27-259, G16D).
T1 construct: Protocadherin-15 (PCDH15), mouse, N-terminal fragment EC1+2; Mutant of m12 made with QuikChange; Held on the Ni-NTA chip by its His tag in SPR; also called pcdh15(G16D); not shown: His6, C-terminal, kept
Put plainly: thermal scanning (thermal stability shift assay with SYPRO orange); pcdh15 fixed at 0.1 mg/mL (~4 μM), cdh23 0.1 to 0.5 mg/mL (~4 to 20 μM; cdh23:pcdh15 1:1 to 5:1); SEC buffer (20 mM Tris-HCl pH 7.5, 150 mM KCl, 50 mM NaCl, 2 mM CaCl2); 10 to 95°C in 0.2°C steps, 5 s equilibration; read-out: shift of the Tm of pcdh15 (ΔTm).

Data set [2] deals with T2, protocadherin-15 EC1+2 Q165L, His-tagged (mouse, UniProt Q99PJ1 27-259, Q165L).
T2 construct: Protocadherin-15 (PCDH15), mouse, N-terminal fragment EC1+2; Mutant of m12 made with QuikChange; Held on the Ni-NTA chip by its His tag in SPR; also called pcdh15(Q165L); not shown: His6, C-terminal, kept
The data set is described as above.

Data set [3] deals with T3, protocadherin-15 EC1+2 I108N, His-tagged (mouse, UniProt Q99PJ1 27-259, I108N).
T3 construct: Protocadherin-15 (PCDH15), mouse, N-terminal fragment EC1+2; Deafness-related missense mutation put into the mouse fragment m12 with QuikChange; also called pcdh15(I108N)
Described as above.

For data set [4], the target named is T4, protocadherin-15 EC1+2, wild type, His-tagged (mouse, UniProt Q99PJ1 27-259).
T4 construct: Protocadherin-15 (PCDH15), mouse, N-terminal fragment EC1+2; pET21a, NdeI/XhoI; predicted molecular weight 27.5 kDa; Held on the Ni-NTA chip by its His tag in SPR; also called pcdh15; pcdh15(WT); not shown: His6, C-terminal, kept
Described as above.

For data set [5], the target named is T5, protocadherin-15 EC1+2 H91R, His-tagged (mouse, UniProt Q99PJ1 27-259, H91R).
T5 construct: Protocadherin-15 (PCDH15), mouse, N-terminal fragment EC1+2; Mutant of m12 made with QuikChange; also called pcdh15(H91R)
The data set is described as above.

Data set [6] addresses T4, protocadherin-15 EC1+2, wild type, …. The data set can be described thus: SEC; analytical, Superdex 75 3.2/3.0, SEC buffer, 4°C, 100 μL loop, 0.05 mL/min; complex read from a decrease in elution volume of the mixture. A general note: Size exclusion chromatography separates by hydrodynamic size, large species first.
Data set [7] concerns the target T1, protocadherin-15 EC1+2 G16D, His-tagged. Put plainly: SPR; Biacore T100, Ni-NTA chip, 6xHis pcdh15 immobilised, tag-free cdh23 0.25 to 30 μM injected, 25°C, SEC buffer; global kinetic fit with EVILFIT (distribution model).
Data set [8] addresses T2, protocadherin-15 EC1+2 Q165L, His-tagged. The data set is described as above.
Data set [9] concerns the target T4, protocadherin-15 EC1+2, wild type, …. The data set is described as above.
Data set [10] addresses T1, protocadherin-15 EC1+2 G16D, His-tagged. The data set can be described thus: SPR; Biacore T100, Ni-NTA chip, 6xHis pcdh15 immobilised, tag-free cdh23 0.25 to 30 μM injected, 25°C, SEC buffer; KD from binding isotherms (Biacore T100 evaluation software). On the technique in general: In SPR one partner is held on a chip, and binding of the other changes the refractive index at the surface.

The target in data set [11] is T2, protocadherin-15 EC1+2 Q165L, His-tagged. Described as above.
For data set [12], the target named is T4, protocadherin-15 EC1+2, wild type, …. The description is as above.

B1: cadherin-23 EC1+2, wild type, His-tagged (domain or fragment, mouse)
chain: QVNRLPFFTNHFFDTYLLISEDTPVGSSVTQLLARDMDNDPLVFGVSGEEASRFFAVEPDTGVVWLRQPLDRETKSEFTVEFSVSDHQGVITRKVNIQVGDVNDNAPTFHNQPYSVRIPENTPVGTPIFIVNATDPDLGAGGSVLYSFQPPSPFFAIDSARGIVTVIQELDYEVTQAYQLTVNATDQDKTRPLSTLANLAIIITD
notes: Cadherin-23 (CDH23), mouse, N-terminal fragment EC1+2; pET21a, NdeI/XhoI; predicted molecular weight 23.8 kDa; also called cdh23; cdh23(WT)
With B1, in data set [1], the “ΔTm of pcdh15 at cdh23:pcdh15 1:1” value worked out at 3 ± 0.5 °C, the “ΔTm of pcdh15 at cdh23:pcdh15 2:1” value was found to be 4.5 ± 0.7 °C, the “ΔTm of pcdh15 at cdh23:pcdh15 3:1” value amounted to 5.6 °C and the “ΔTm of pcdh15 at cdh23:pcdh15 4:1” value was 6.2 ± 0.1 °C. In data set [1], the “ΔTm of pcdh15 at cdh23:pcdh15 5:1” value was determined as 6.8 ± 0.4 °C. For the same molecule, in data set [2], the “ΔTm of pcdh15 at cdh23:pcdh15 1:1” value came out at 1.1 ± 0.4 °C, the “ΔTm of pcdh15 at cdh23:pcdh15 2:1” value came to 1.7 ± 0.7 °C, the “ΔTm of pcdh15 at cdh23:pcdh15 3:1” value is 2.3 ± 0.6 °C and the “ΔTm of pcdh15 at cdh23:pcdh15 4:1” value is 2.7 ± 0.9 °C. The “ΔTm of pcdh15 at cdh23:pcdh15 5:1” value in data set [2] stood at 3.7 ± 1.1 °C. In [3], the “ΔTm of pcdh15 at cdh23:pcdh15 1:1” value came to 0 °C, the “ΔTm of pcdh15 at cdh23:pcdh15 2:1” value turned out to be 0.2 ± 0.2 °C, the “ΔTm of pcdh15 at cdh23:pcdh15 3:1” value came out at 0.4 ± 0.1 °C and the “ΔTm of pcdh15 at cdh23:pcdh15 4:1” value is 0.4 ± 0.1 °C. Moreover, the “ΔTm of pcdh15 at cdh23:pcdh15 5:1” value in data set [3] came out at 0.5 °C. Also, in data set [4], the “ΔTm of pcdh15 at cdh23:pcdh15 1:1” value worked out at 1.8 ± 0.8 °C, the “ΔTm of pcdh15 at cdh23:pcdh15 2:1” value stood at 3.2 ± 0.7 °C, the “ΔTm of pcdh15 at cdh23:pcdh15 3:1” value was 4.1 ± 0.8 °C and the “ΔTm of pcdh15 at cdh23:pcdh15 4:1” value came to 5 ± 0.7 °C. Moreover, the “ΔTm of pcdh15 at cdh23:pcdh15 5:1” value in data set [4] was determined as 5.5 ± 0.8 °C.

B2: cadherin-23 EC1+2 T79E, His-tagged (domain or fragment, mouse)
chain: B1 chain with T79E
notes: Cadherin-23 (CDH23), mouse, N-terminal fragment EC1+2; Mutant of m1 made with QuikChange; also called cdh23(T79E)
As to B2, in data set [5], the “ΔTm of pcdh15 at cdh23:pcdh15 1:1” value was determined as 2.1 ± 0.4 °C, the “ΔTm of pcdh15 at cdh23:pcdh15 2:1” value worked out at 4.1 ± 0.5 °C, the “ΔTm of pcdh15 at cdh23:pcdh15 3:1” value turned out to be 5.3 ± 1.8 °C and the “ΔTm of pcdh15 at cdh23:pcdh15 4:1” value stood at 6 ± 1.8 °C. Moreover, the “ΔTm of pcdh15 at cdh23:pcdh15 5:1” value in [5] is 7.3 ± 1.3 °C.

B3: cadherin-23 EC1+2 T15E, His-tagged (domain or fragment, mouse)
chain: B1 chain with T15E
notes: Cadherin-23 (CDH23), mouse, N-terminal fragment EC1+2; Mutant of m1 made with QuikChange; also called cdh23(T15E)
As for B3, in data set [1], the “ΔTm of pcdh15 at cdh23:pcdh15 1:1” value amounted to 2.4 ± 0.4 °C, the “ΔTm of pcdh15 at cdh23:pcdh15 2:1” value worked out at 4.5 ± 0.8 °C, the “ΔTm of pcdh15 at cdh23:pcdh15 3:1” value was 5.5 ± 0.7 °C and the “ΔTm of pcdh15 at cdh23:pcdh15 4:1” value came to 6.5 ± 1.2 °C. Moreover, in [1], the “ΔTm of pcdh15 at cdh23:pcdh15 5:1” value worked out at 7.2 ± 1.1 °C. In addition, in data set [4], the “ΔTm of pcdh15 at cdh23:pcdh15 1:1” value turned out to be 2.3 ± 0.4 °C, the “ΔTm of pcdh15 at cdh23:pcdh15 2:1” value came to 3.9 °C, the “ΔTm of pcdh15 at cdh23:pcdh15 3:1” value was 4.8 ± 0.1 °C and the “ΔTm of pcdh15 at cdh23:pcdh15 4:1” value was 6 ± 0.5 °C. The “ΔTm of pcdh15 at cdh23:pcdh15 5:1” value in data set [4] worked out at 6.7 ± 0.6 °C.

B4: cadherin-23 EC1+2 T190W, His-tagged (domain or fragment, mouse)
chain: B1 chain with T190W
notes: Cadherin-23 (CDH23), mouse, N-terminal fragment EC1+2; Mutant of m1 made with QuikChange; also called cdh23(T190W)
For B4, in data set [6], the binding result is given as “binds”.

B5: cadherin-23 EC1+2 F7E, His-tagged (domain or fragment, mouse)
chain: B1 chain with F7E
notes: Cadherin-23 (CDH23), mouse, N-terminal fragment EC1+2; Mutant of m1 made with QuikChange; also called cdh23(F7E)
Consider B5, for which, in [4], the “ΔTm of pcdh15 at cdh23:pcdh15 1:1” value is 1.7 ± 0.6 °C, the “ΔTm of pcdh15 at cdh23:pcdh15 2:1” value stood at 4.8 ± 0.6 °C, the “ΔTm of pcdh15 at cdh23:pcdh15 3:1” value was found to be 5.5 ± 0.3 °C and the “ΔTm of pcdh15 at cdh23:pcdh15 4:1” value was 5.9 ± 0.2 °C. Besides, in [4], the “ΔTm of pcdh15 at cdh23:pcdh15 5:1” value worked out at 7 ± 0.2 °C.

B6: cadherin-23 EC1+2 S76V, His-tagged (domain or fragment, mouse)
chain: B1 chain with S76V
notes: Cadherin-23 (CDH23), mouse, N-terminal fragment EC1+2; Mutant of m1 made with QuikChange; also called cdh23(S76V)
For B6, in [4], the “ΔTm of pcdh15 at cdh23:pcdh15 1:1” value worked out at 1.7 ± 1 °C, the “ΔTm of pcdh15 at cdh23:pcdh15 2:1” value came out at 3 ± 1.7 °C, the “ΔTm of pcdh15 at cdh23:pcdh15 3:1” value amounted to 4 ± 1.5 °C and the “ΔTm of pcdh15 at cdh23:pcdh15 4:1” value amounted to 5.1 ± 1.8 °C. Moreover, the “ΔTm of pcdh15 at cdh23:pcdh15 5:1” value in [4] stood at 5.4 ± 1.9 °C.

B7: cadherin-23 EC1+2 (residues 1-205), wild type, tagless (domain or fragment, mouse)
chain: QVNRLPFFTNHFFDTYLLISEDTPVGSSVTQLLARDMDNDPLVFGVSGEEASRFFAVEPDTGVVWLRQPLDRETKSEFTVEFSVSDHQGVITRKVNIQVGDVNDNAPTFHNQPYSVRIPENTPVGTPIFIVNATDPDLGAGGSVLYSFQPPSPFFAIDSARGIVTVIQELDYEVTQAYQLTVNATDQDKTRPLSTLANLAIIITDA
notes: an Ala residue included between CDH23 EC2 and the intein tag to improve cleavage efficiency; pTXB1, NdeI/SapI; That the added Ala stays on the C-terminus after thiol-induced cleavage, and that a start Met precedes residue 1, are surmised; also called tag-free cdh23; tagless cdh23
Take B7: the Kd in data set [7] turned out to be 2000 ± 990 nM; in [8], 3940 ± 1110 nM; in data set [9], 3720 ± 1650 nM; in [10], 1110 ± 70 nM; in [11] it was 2600 nM; in data set [12], 1380 ± 360 nM. The figures for the koff in data set [7], in [8] and in [9] were 0.17 ± 0.01 s⁻¹, 0.22 ± 0.04 s⁻¹ and 0.2 ± 0.04 s⁻¹, respectively. Besides, the kon came out at 94800 M⁻¹ s⁻¹ in [7], 55900 M⁻¹ s⁻¹ in data set [8] and 61900 M⁻¹ s⁻¹ in data set [9].

B8: cadherin-23 EC1+2 (residues 1-205) S76V, tagless (domain or fragment, mouse)
chain: B7 chain with S76V
notes: an Ala residue included between CDH23 EC2 and the intein tag to improve cleavage efficiency; Mutant of m8; That the added Ala stays on the C-terminus after cleavage is surmised; also called cdh23(S76V)
In [9], B8 displayed a Kd of 2790 ± 880 nM, a koff of 0.18 ± 0.01 s⁻¹ and a kon of 68800 M⁻¹ s⁻¹. The Kd in [12] worked out at 1160 ± 560 nM.

B9: cadherin-23 EC1+2 (residues 1-205) T15E, tagless (domain or fragment, mouse)
chain: B7 chain with T15E
notes: an Ala residue included between CDH23 EC2 and the intein tag to improve cleavage efficiency; Mutant of m8; That the added Ala stays on the C-terminus after cleavage is surmised; also called cdh23(T15E)
Take B9: the Kd in data set [7] came out at 1420 ± 50 nM; in data set [9], 2050 ± 100 nM; in [10], 620 ± 110 nM; in data set [12], 880 ± 60 nM. The koff stood at 0.09 s⁻¹ in [7] and 0.11 ± 0.01 s⁻¹ in data set [9]. The kon in data set [7] was found to be 61400 M⁻¹ s⁻¹; in [9], 55100 M⁻¹ s⁻¹.

B10: cadherin-23 EC1+2 (residues 1-205) F7E, tagless (domain or fragment, mouse)
chain: B7 chain with F7E
notes: an Ala residue included between CDH23 EC2 and the intein tag to improve cleavage efficiency; Mutant of m8; That the added Ala stays on the C-terminus after cleavage is surmised; also called cdh23(F7E)
For B10, in data set [9], binding was characterised by a dissociation constant (Kd) of 3250 ± 250 nM, the koff was 0.22 ± 0.04 s⁻¹ and the kon came out at 66000 M⁻¹ s⁻¹. In addition, in [12], the Kd worked out at 1580 ± 30 nM.
